Reference: PMC5013273

Biological target: zona pellucida of in vitro matured (IVM) porcine oocytes (pig (endogenous on porcine oocytes))

## full-length rabbit OVGP1, recombinant, histidine-tagged (natural protein)
  ZP digestion time in 0.5% pronase after 1 hr exposure of IVM porcine oocytes to 5, 50 and 125 μg/ml rOVGP1: 989 min

B1: full-length porcine OVGP1 (oviduct-specific glycoprotein, oviductin), recombinant, histidine-tagged (natural protein)
chain: HKLVCYFANWAFSRPGPASILPRDLDPFLCTHLVFAFASMNDSQIVAKDARDESIFYPEFNQLKERNEKLKTLLSIGGWNFGTSRFTTMLSTFTNREKFIRSAIGLLRTHGFDGLDLFFLYPGLRGSPRRDRWNFLFLLEELLLAFRREAQLTMRPRLLLSAAVSADPHVIQKAYDVRLLGRLLDFINVLSYDLHGSWEKVTGHNSPLFSLSDDPKSSAYTMNYWRKLGAPPEKLLMGFPTYGRTFRLLKASKNELGAEAVGPASPGKYTKQAGFLAYYEVCSFVQRAKKRWIDHQYVPYAYRGKEWVGYDDDISFSYKAFFIKKEHFGGAMVWTLDLDDVRGTFCGTGPFPLVYMLNDLLLKAEVSSTLSPGFGLSTTVNSSRTCPESLAVTKDLTTDLGILPLGGEAVATETHGRSDNMTVTPGGGLVAPTRPTLSFGKLTVAPEGKTESPGEKAMTPVGHPSVTPGDMSVPPVPIQTGDRITPPRRQAVAPEKMTLPSGKRSD
  ZP digestion time in 0.5% pronase after 1 hr exposure of IVM porcine oocytes to 125 and 250 μg/ml pOVGP1: 102 min

B2: truncated porcine OVGP1 lacking region D (regions A and B, 481 aa), recombinant, histidine-tagged (domain or fragment)
chain: HKLVCYFANWAFSRPGPASILPRDLDPFLCTHLVFAFASMNDSQIVAKDARDESIFYPEFNQLKERNEKLKTLLSIGGWNFGTSRFTTMLSTFTNREKFIRSAIGLLRTHGFDGLDLFFLYPGLRGSPRRDRWNFLFLLEELLLAFRREAQLTMRPRLLLSAAVSADPHVIQKAYDVRLLGRLLDFINVLSYDLHGSWEKVTGHNSPLFSLSDDPKSSAYTMNYWRKLGAPPEKLLMGFPTYGRTFRLLKASKNELGAEAVGPASPGKYTKQAGFLAYYEVCSFVQRAKKRWIDHQYVPYAYRGKEWVGYDDDISFSYKAFFIKKEHFGGAMVWTLDLDDVRGTFCGTGPFPLVYMLNDLLLKAEVSSTLSPGFGLSTTVNSSRTCPESLAVTKDLTTDLGILPLGGEAVATETHGRSDNMTVTPGGGLVAPTRPTLSFGKLTVAPEGKTESPGEKAMTP
  ZP digestion time in 0.5% pronase after 1 hr exposure of IVM porcine oocytes to 125 and 250 μg/ml pOVGP1AB: 7.75 h
